Reference: patent publication US20240124586A1 (WUXI BIOLOGICS IRELAND, published 2024)

T1: human CD19 on CD19+ B cell lines (Ramos, Raji) (human, UniProt P15391 20-556)
T1 construct: whole, on cells; also called CD19+ Ramos cells; CD19+ Raji cells
T1 sequence (looked up): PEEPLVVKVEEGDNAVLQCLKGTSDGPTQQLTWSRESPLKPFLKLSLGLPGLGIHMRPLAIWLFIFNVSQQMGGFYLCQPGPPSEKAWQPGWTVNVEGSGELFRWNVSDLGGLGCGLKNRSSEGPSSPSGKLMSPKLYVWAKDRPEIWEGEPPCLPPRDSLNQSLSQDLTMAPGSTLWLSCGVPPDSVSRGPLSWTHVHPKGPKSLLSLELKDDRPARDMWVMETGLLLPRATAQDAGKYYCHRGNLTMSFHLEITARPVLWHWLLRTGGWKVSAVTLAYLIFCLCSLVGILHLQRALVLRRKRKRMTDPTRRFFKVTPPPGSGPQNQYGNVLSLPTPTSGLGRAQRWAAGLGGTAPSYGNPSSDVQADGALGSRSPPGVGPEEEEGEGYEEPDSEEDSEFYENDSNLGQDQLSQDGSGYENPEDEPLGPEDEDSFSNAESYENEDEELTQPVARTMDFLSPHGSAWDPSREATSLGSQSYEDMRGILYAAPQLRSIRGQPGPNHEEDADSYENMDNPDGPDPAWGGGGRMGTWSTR

T2: FcγRIIa (H167) (UniProt P12318 36-218, limits assumed)
T2 sequence (looked up): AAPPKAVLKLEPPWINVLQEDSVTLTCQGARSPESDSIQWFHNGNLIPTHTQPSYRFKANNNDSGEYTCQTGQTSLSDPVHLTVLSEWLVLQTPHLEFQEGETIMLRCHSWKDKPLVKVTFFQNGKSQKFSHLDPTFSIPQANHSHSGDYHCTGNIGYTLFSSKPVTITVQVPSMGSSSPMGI


Columns and labels:
[1] = target: T3, human CD3 on CD3+ Jurkat cells (human, UniProt P07766 23-207; P09693 23-182; P04234 22-171); assay: affinity by flow cytometry on Jurkat cells (bound/free versus bound)
T3 construct: whole, on cells; also called CD3 positive Jurkat cells
Protocol: (§1) Binding affinity to CD3 and CD19 was determined by flow cytometry using Jurkat and Ramos cells, respectively. The cells were transferred in to 96-well U-bottom plates (BD) at a density of 5×10⁴ cells/well. Antibodies to be tested were 1:2-fold serially diluted in 1% 1×PBS/1% BSA and incubated with cells at 4° C. for 1 hr. Then, the plates were centrifuged at 1500 rpm for 4 mins and the supernatant discarded. […] The cells were washed once and re-suspended in 100 μL 1×PBS/1% BSA. Fluorescence intensity was measured by flow cytometry (BD Canto II) and analyzed by FlowJo. Fluorescence intensity was converted to bound molecules/cell based on the quantitative beads (Quantum™ MESF Kits, Bangs Laboratories). KD was calculated by Graphpad Prism5.
(§2) The bound IgG/free IgG versus bound IgG was plotted in FIGS. 46A and 46B.

[2] = target: T1, human CD19 on CD19+ B cell lines …; assay: affinity by flow cytometry on Ramos cells (bound/free versus bound)
Protocol: as §1, §2

FcγRI = target: T4, FcγRI (UniProt P12314 16-288, limits assumed); assay: SPR (Biacore), receptor captured on anti-his chip, 1:1 model
T4 construct: His-tagged by the capture method
Protocol: (§3) Antibody binding affinity to FcγRs was detected using Biacore T200 (or Biacore 8K). Each receptor was captured on an anti-his antibody immobilized CM5 sensor chip (GE). Antibodies at different concentrations were injected over the sensor chip at a flow rate of 30 uL/min for an association phase of 60 s, followed by 60 s dissociation. The chip was then regenerated by 10 mM glycine (pH 1.5) after each binding cycle.
(§4) The sensorgrams of blank surface and buffer channel were subtracted from the test sensorgrams. The experimental data was fitted by 1:1 model using Langmiur analysis (for FcγRI) or steady state model (for other receptors). A molecular weight of 150 KDa was used to calculate the molar concentration of antibodies.

FcγRIIa (H167) = target: T2, FcγRIIa (H167); assay: SPR (Biacore), receptor captured on anti-his chip, steady state model
Protocol: as §3, §4

FcγRIIIa (F176) = FcγRIIIa (F176) (UniProt P08637 17-208); assay: as above
Protocol: as §3, §4

[3] = target: T5, ECD of human CTLA-4 (SPR analyte) (human, UniProt P16410 36-161); assay: SPR (Biacore), antibody captured as ligand on an anti-human IgG Fc chip, CTLA4 ECD as analyte
T5 construct: extracellular domain
Protocol: SPR technology was used to measure the on-rate constant (ka) and off-rate constant (kd) of the antibodies to ECD of CTLA-4 or PD-1. The affinity constant (KD) was consequently determined.
Biacore T200, Series S Sensor Chip CM5, Amine Coupling Kit, and 10×HBS-EP were purchased from GE Healthcare. Goat anti-human IgG Fc antibody was purchased from Jackson ImmunoResearch Lab (catalog number 109-005-098). In immobilization step, the activation buffer was prepared by mixing 400 mM EDC and 100 mM NHS immediately prior to injection. The CM5 sensor chip was activated for 420 s with the activation buffer. 30 μg/mL of goat anti-human IgG Fcγ antibody in 10 mM NaAc (pH 4.5) was then injected to Fc1-Fc4 channels for 200 s at a flow rate of 5 μL/min. The chip was deactivated by 1 M ethanolamine-HCl (GE). Then the antibodies were captured on the chip. Briefly, 4 μg/mL antibodies in running buffer (HBS-EP+) was injected individually to Fc3 channel for 30 s at a flow rate of […]. […] Regeneration buffer (10 mM Glycine pH 1.5) was injected at 10 μL min for 30 s following every dissociation phase.

[4] = target: T6, biotinylated human CTLA-4.ECD.hFc (W316-hPro1.ECD.hFc.Biotin) (human, UniProt P16410 36-161, biotin-labelled (site not stated)); assay: competitive FACS, biotinylated CTLA-4.ECD.hFc on human CD80 CHO-K1 cells (competitor: CD80)
T6 construct: extracellular domain; In-house protein; also called hCTLA-4.ECD.hFc-Biotin; human CTLA-4 protein
Protocol: Competitive FACS was used to test whether the antibodies could block human or cynomolgus CTLA-4 binding to hCD80 on cell surface. […] Then the mixtures of antibody and CTLA-4 were added to the cells and incubated for 1 hour at 4° C. The cells were washed two times with 200 μl FACS washing buffer (DPBS containing 1% BSA). Streptavidin PE (BD Pharmingen-554061) 1 to 600 diluted in FACS buffer was added to the cells and incubated at 4° C. for 1 hour. Additional washing steps were performed two times with 200 μL FACS washing buffer followed by centrifugation at 1500 rpm for 4 minutes at 4° C. Finally, the cells were resuspended in 100 μL FACS washing buffer and fluorescence values were measured by flow cytometry and analyzed by FlowJo.

T5 sequence (P16410 36-161): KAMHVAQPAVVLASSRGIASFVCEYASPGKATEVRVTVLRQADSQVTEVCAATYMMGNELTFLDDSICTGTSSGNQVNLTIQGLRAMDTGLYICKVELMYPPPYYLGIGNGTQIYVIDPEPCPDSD
T4 sequence (P12314 16-288 limits assumed): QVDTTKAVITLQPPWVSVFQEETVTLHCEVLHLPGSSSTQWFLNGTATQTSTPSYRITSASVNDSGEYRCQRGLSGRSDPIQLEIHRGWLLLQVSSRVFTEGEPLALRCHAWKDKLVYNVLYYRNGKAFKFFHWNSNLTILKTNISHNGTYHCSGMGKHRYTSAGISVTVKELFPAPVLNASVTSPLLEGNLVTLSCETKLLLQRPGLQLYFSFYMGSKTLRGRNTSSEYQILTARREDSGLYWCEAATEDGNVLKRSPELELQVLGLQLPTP
T3 sequence (P07766 23-207, chain 1 of 3): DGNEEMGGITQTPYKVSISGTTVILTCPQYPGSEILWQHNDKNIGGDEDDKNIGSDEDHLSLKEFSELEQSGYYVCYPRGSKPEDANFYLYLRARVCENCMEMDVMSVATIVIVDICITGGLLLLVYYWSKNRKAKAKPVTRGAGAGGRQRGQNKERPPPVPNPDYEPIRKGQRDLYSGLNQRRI
T3 sequence (P09693 23-182, chain 2 of 3): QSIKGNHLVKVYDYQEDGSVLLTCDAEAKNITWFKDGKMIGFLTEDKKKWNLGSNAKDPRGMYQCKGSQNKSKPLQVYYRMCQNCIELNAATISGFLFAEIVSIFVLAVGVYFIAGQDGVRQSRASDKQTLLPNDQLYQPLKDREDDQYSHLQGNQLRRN
T3 sequence (P04234 22-171, chain 3 of 3): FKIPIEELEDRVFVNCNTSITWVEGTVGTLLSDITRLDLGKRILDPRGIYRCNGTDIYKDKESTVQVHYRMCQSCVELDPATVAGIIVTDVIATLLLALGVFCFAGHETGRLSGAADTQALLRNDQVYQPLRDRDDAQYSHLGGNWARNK
FcγRIIIa (F176), sequence (P08637 17-208 limits assumed): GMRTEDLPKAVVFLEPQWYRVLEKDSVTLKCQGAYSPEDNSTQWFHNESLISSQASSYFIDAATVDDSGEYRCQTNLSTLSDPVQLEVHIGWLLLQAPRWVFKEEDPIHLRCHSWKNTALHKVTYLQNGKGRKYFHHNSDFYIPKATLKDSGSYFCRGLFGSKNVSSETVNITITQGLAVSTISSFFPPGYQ
T6 sequence (P16410 36-161): as the sequence (P16410 36-161) above

Row | Kd [1] | Kd [2] | Kd (FcγRI) | Kd (FcγRIIa (H167)) | Kd (FcγRIIIa (F176)) | Kd [3] | koff [3] | kon [3] | IC50 [4] | Binder
1 | 9 nM | 23 nM | 9.79 nM | 20.5 µM | 29.3 µM | – | – | – | – | W3438-T3U4.E17-1.uIgG4.SP, bispecific anti-CD3 x CD19 (bispecific antibody, also called E17-Design_2-QQQQ (IgG4); E17-IgG4; copies: 1 + 1 + 1 + 1) heavy 1: QVQLVQSGAEVKKPGSSVKVSCKASGFAFTDYYIHWVRQAPGQGLEWMGWISPGNVNTKYNENFKGRVTITADKSTSTAYMELSSLRSEDTAVYYCARDGYSLYYFDYWGQGTLVTVLEDLKNVFPPEVAVFEPSEAEISHTQKATLVCLATGFYPDHVELSWWVNGKEVHSGVCTDPQPLKEQPALQDSRYALSSRLRVSATFWQNPRNHFRCQVQFYGLSENDEWTQDRAKPVTQIVSAEAWGRYGPPCPPCPAPEFLGGPSVFLFPPKPKDTLMISRTPEVTCVVVDVSQEDPEVQFNWYVDGVEVHNAKTKPREEQFNSTYRVVSVLTVLHQDWLNGKEYKCKVSNKGLPSSIEKTISKAKGQPREPQVYTLPPCQEEMTKNQVSLWCLVKGFYPSDIAVEWESNGQPENNYKTTPPVLDSDGSFFLYSRLTVDKSRWQEGNVFSCSVMHEALHNHYTQKSLSLSLGK light 1: DIVMTQSPDSLAVSLGERATINCKSSQSLLNSRTRKNYLAWYQQKPGQPPKLLIYWASTRQSGVPDRFSGSGSGTDFTLTISSLQAEDVAVYYCTQSHTLRTFGGGTKVEIKPDIQNPDPAVYQLRDSKSSDKSVCLFTDFDSQTQVSQSKDSDVYITDKCVLDMRSMDFKSNSAVAWSQKSDFACANAFQNSIIPEDTFFPSPESS heavy 2: QMQLVQSGPEVKKPGTSVKVSCKASGYAFTSYNMYWVRQARGQRLEWIGYIDPYNGDTTYNQKFKGRVTITRDMSTSTAYMELSSLRSEDTAVYYCLTTAYAMDYWGQGTLVTVSSASTKGPSVFPLAPCSRSTSESTAALGCLVKDYFPEPVTVSWNSGALTSGVHTFPAVLQSSGLYSLSSVVTVPSSSLGTKTYTCNVDHKPSNTKVDKRVESKYGPPCPPCPAPEFLGGPSVFLFPPKPKDTLMISRTPEVTCVVVDVSQEDPEVQFNWYVDGVEVHNAKTKPREEQFNSTYRVVSVLTVLHQDWLNGKEYKCKVSNKGLPSSIEKTISKAKGQPREPQVCTLPPSQEEMTKNQVSLSCAVKGFYPSDIAVEWESNGQPENNYKTTPPVLDSDGSFFLVSRLTVDKSRWQEGNVFSCSVMHEALHNHYTQKSLSLSLGK light 2: DIQLTQSPSFLSASVGDRVTITCSASSTVNYMHWYQQKPGKAPKLLIYSTSNLASGVPSRFSGSGSGTEFTLTISSLQPEDFATYYCHQWSSYPYTFGQGTKLEIKRTVAAPSVFIFPPSDEQLKSGTASVVCLLNNFYPREAKVQWKVDNALQSGNSQESVTEQDSKDSTYSLSSTLTLSKADYEKHKVYACEVTHQGLSSPVTKSFNRGEC
2 | – | – | – | – | – | 0.0356 nM | 2.88e-05 s⁻¹ | 808000 M⁻¹ s⁻¹ | 0.758 nM | W3248-U6T5.G25-1.uIgG4.SP, bispecific anti-PD-1 x CTLA-4 (bispecific antibody, IgG4 (S228P); also called WBP3248-U6T5.G25-1-uIgG4.SP; U6T5.G25.IgG4) heavy: not shown light 1: SYELTQPLSVSVALGQTARITCGGDNIGNKDVHWYQQKPGQAPVLVIYRDSNRPSGIPEGFSGSNSGNTATLTISRAQAGDEADYYCQVWDSIWVFGGGTKLTVLPDIQNPDPAVYQLRDSKSSDKSVCLFTDFDSQTQVSQSKDSDVYITDKCVLDMRSMDFKSNSAVAWSQKSDFACANAFQNSIIPEDTFFPSPESS light 2: EIVLTQSPDFQSVTPKEKVTITCSANSALSYMYWYQQKPDQSPKLWVHGTSNLASGVPSRFSGSGSGTDFTLTINSLEAEDAATYYCHHWSNTQWTFGGGTKVEIKRTVAAPSVFIFPPSDEQLKSGTASVVCLLNNFYPREAKVQWKVDNALQSGNSQESVTEQDSKDSTYSLSSTLTLSKADYEKHKVYACEVTHQGLSSPVTKSFNRGEC
